Data on one molecule can be found in US20240018513A1, “SYNTHETIC INTRONS FOR TARGETED GENE EXPRESSION” (FRED HUTCHINSON CANCER CENTER, priority 2020, published 2024).

Series [1] deals with WT or SF3B1-mutant K562 cells. Put plainly: K562 xenografts (intravenous), GCV or PBS, bioluminescence and survival. It is filed as in vivo, NOD-scid IL2Rgnull (NSG) mice. From the text: FIGS. 4A-4I: Synthetic introns enable mutation-dependent cancer cell targeting in vivo. (4A) Schematic of xenograft experiments with K562 cells expressing Luciferase and HSV-TK interrupted by synMTERFD3i1-150. K562 cells were intravenously injected into sub-lethally irradiated (250 cGy) NOD-scid IL2rgnull (NSG) mice (2M cells/mouse). n=10 (WT) and 9 (SF3B1-mutant) mice per cohort. (4B) Quantification of tumor burden, estimated by whole-body bioluminescent signal. Each point represents a single mouse. (4C) Representative bioluminescence images from cohorts described in (4A). (4D) Survival of mice from cohort described in (4A). p computed with logrank test. Comparisons not illustrated on plot are not significant (p+/+ GCV vs. PBS=0.534; pK700E/+PBS vs.+/+PBS=0.823). The cause of death for the one GCV-treated animal engrafted with an SF3B1-mutant leukemia which died by experiment endpoint was unclear, as this animal had minimal leukemic burden by imaging or necropsy. (4E) Survival curves of NSG mice engrafted with SF3B1 WT (top) or SF3B1 K700E (bottom) MOLM-13 cells expressing Luciferase and HSV-TK interrupted by synMTERFD3i1-150 followed by treatment with either PBS or GCV. pK700E/+ PBS vs. pK700E/+GCV=0.011. n=10 mice/group. (4F) Representative bioluminescence images from cohorts described in (4E). (4G) Tumor volumes of mice engrafted with SF3B1 WT or SF3B1 K700E T47D cells expressing HSV-TK interrupted by synMTERFD3i1-150 followed by treatment with either PBS or GCV. T47D cells were engrafted subcutaneously. Data represented as mean±s.d. n=8 mice/group. (4H) Tumor volumes of mice engrafted with SF3B1 WT MEL285 cells (left) or SF3B1 R625G MEL202 cells (right) expressing HSV-TK interrupted by synthetic intron 6700 (synMTERFD3i1-150 with A>C at −7 nt; A>C at −19 nt) followed by treatment with either PBS or GCV. All cells were engrafted subcutaneously. Data represented as mean±s.d. n=10 mice/group. (4I) Representative gross images of the tumors from (4H) at day 27 post-implantation.
Having identified the key features governing mutation responsiveness, the next step was to test whether synthetic introns permitted mutation-dependent cancer cell killing in vivo. A focus was made on synMTERFD3i1-150 for these experiments, as it served as the parent synthetic intron from which most of the full library was derived. Luciferase-GFP constructs were introduced into WT or SF3B1-mutant K562 cells expressing HSV-TK interrupted by synMTERFD3i1-150, tail vein injections of these cells were performed into NOD-scid IL2Rgnull (NSG) mice. The mice were treated with PBS or GCV and monitored for leukemia burdens with live imaging (FIG. 4A). […]

For series [2], the system named is MOLM-13 cells. Put plainly: MOLM-13 xenografts (intravenous), doxycycline-inducible SF3B1 WT or K700E, GCV or PBS. The following applies: GCV-treated arm engrafted with SF3B1K700E-expressing MOLM-13 cells. It is filed as in vivo, NSG mice. From the text: FIGS. 4A-4I: Synthetic introns enable mutation-dependent cancer cell targeting in vivo. (4A) Schematic of xenograft experiments with K562 cells expressing Luciferase and HSV-TK interrupted by synMTERFD3i1-150. K562 cells were intravenously injected into sub-lethally irradiated (250 cGy) NOD-scid IL2rgnull (NSG) mice (2M cells/mouse). n=10 (WT) and 9 (SF3B1-mutant) mice per cohort. (4B) Quantification of tumor burden, estimated by whole-body bioluminescent signal. Each point represents a single mouse. (4C) Representative bioluminescence images from cohorts described in (4A). (4D) Survival of mice from cohort described in (4A). p computed with logrank test. Comparisons not illustrated on plot are not significant (p+/+ GCV vs. PBS=0.534; pK700E/+PBS vs.+/+PBS=0.823). The cause of death for the one GCV-treated animal engrafted with an SF3B1-mutant leukemia which died by experiment endpoint was unclear, as this animal had minimal leukemic burden by imaging or necropsy. (4E) Survival curves of NSG mice engrafted with SF3B1 WT (top) or SF3B1 K700E (bottom) MOLM-13 cells expressing Luciferase and HSV-TK interrupted by synMTERFD3i1-150 followed by treatment with either PBS or GCV. pK700E/+ PBS vs. pK700E/+GCV=0.011. n=10 mice/group. […]
Next, the potential efficacy of using synthetic introns was tested in other cancer models. […] Leukemia burden and survival were monitored. […]

B1: intron_26: 150 nt MTERFD3 intron 1-derived synthetic intron, deletion 25to125; SEQ ID NO 58/66 (nucleic acid)
DNA 1: GTGAGTCGCCCCCTTCCTCTGCTCCGAGAGGGAAATGGGAATTAGGGTGGTGGCAGAGCCCAAAGAGGCCTTGTAGGCCATGGTAAGGCATTTCTATGTTTTATTTTACTTTGTCTTTATCCTAAAATGCCATTGGCAAGTTTATTGCAG
DNA 2: B1 DNA 1
With B1, the “survival, p (logrank test)” value in series [1] (+/+ (WT) GCV vs. PBS) was found to be 0.534; in series [1] (GCV- vs. PBS-treated SF3B1-mutant leukemias), 1.7e-4. Also, the “leukemic burden (whole-body bioluminescent signal)” value in series [1] (GCV 80 mg/kg IP three times per week vs PBS) was “immediate and sustained suppression of SF3B1-mutant leukemic burden, with no effects on WT leukemias”. In series [1] (GCV- vs PBS-treated SF3B1-mutant leukemias), the survival result is “significantly increased survival”. For the same molecule, the “survival and tumor burden” value in series [2] is “significantly prolonged survival and reduced tumor burden”.
